The target of data set [1] is T1, neuramimidase-treated human suPAR (soluble recombinant uPAR) (Homo sapiens, UniProt Q03405).
T1 construct: A soluble recombinant variant of human uPAR (suPAR) was expressed in Chinese hamster ovary (dhfr) cells; made in house; host or cells: Chinese hamster ovary (dhfr) cells
The data set can be described thus: Biacore Binding Assay (surface plasmon resonance), ligand binding to immobilised suPAR. The note with it: for koff: Biacore, 5° C., immobilised suPAR, read-out: kdiss (dissociation rate constant, off-rate). On the procedure:
Association rate constants (kass), dissociation rate constants (kdiss) and equilibrium binding constants (kd) for various synthetic peptides and receptor binding derivatives of human uPA were determined by surface plasmon resonance (R. Karlsson et al. (1991) J. Immunol. Meths. 145:229–240) using a BIAcore2000™ instrument (Pharmacia Biosensor, Uppsala, Sweden). Due to the low isoelectric point of uPAR (pI≈4.5) terminal sialic acid residues were removed from its N-linked carbohydrates to facilitate chemical immobilisation on the sensor chip. This was accomplished by incubating purified suPAR (1 mg/ml in 50 mM phosphate, 150 mM NaCl, pH 7.4) with 5 μg/ml neuramimidase for 4 hours at 37° C. […] Coupling of the neuramimidase-treated suPAR to a BIAcore sensor chip was achieved by injection of 20 μg/ml suPAR in 10 mM sodium acetate pH 5.0 for 6 minutes at a flow rate of […] per minute using a carboxymethylated dextran matrix (CM5 sensor chip) preactivated with N-hydroxysuccinimide/N-ethyl-N′-[3-([…])propyl]carbodiimide according to the manufacturer's recommendations. Approximately 1,500–2,000 resonance units (RU) were immobilised by this procedure (corresponding to 1–2 ng suPAR/mrn^2).
Sensorgrams (RU versus time) were recorded (FIG. 2) at a flow rate of 10 μl per min at 5° C. using several different concentrations of the ligand (synthetic peptides, uPA, the amino-terminal fragment (ATF) of uPA, or the growth factor domain (GFD) of uPA) in the range of 10 to 1000 nM in running buffer (10 mM HEPES, 150 mM NaCl, 3 mM EDTA (pH 7.4) including 0.005% surfactant P-20). Stock solutions of peptides from combinatorial chemistry were made in DMSO (10 mg peptide/ml DMSO). The sensor chip was regenerated at the end of each run by injection of 0.1 M acetic acid, 0.5 M NaCl. Data obtained from parallel mock coupled flow cells (subjected to the coupling procedure in the presence of buffer only) served as blank sensorgrams for subtraction of changes in bulk refractive index. The sensorgrams obtained were analysed by non-linear least squares fitting using BIAevaluation 2.0 software (Pharmacia Biosensor, Uppsala, Sweden) assuming single-site association and dissociation models.
Purified human suPAR (1 mg/ml in 50 mM phosphate, 150 mM NaCl, pH 7.4) was incubated with 5 μg/ml neuramimidase for 4 hours at 37° C.
In order to couple the neuramimidase-treated suPAR to a BIAcore sensor chip, 20 μg/ml suPAR in 10 mM sodium acetate (pH 5.0) was injected for 6 minutes at a flow rate of 5 μl per minute using a carboxymethylated dextran matrix (CM5 sensor chip), thereby immobilising approximately 1,500–2,000 resonance units (RU), which correspond to 1–2 ng suPAR/mm^2. The CM5 sensor chip was preactivated with N-hydroxysuccinimide/N-ethyl-N′-[3-([…])propyl]carbodiimide in accordance with the manufacturer's recommendations.
Surface plasmon resonance sensorgrams (RU versus time) were recorded at a flow rate of 10 μl per min at 5° C. using several different concentrations of the ligand (i.e. the relevant peptide or GFD) in the range from 10 to 1000 nM in running buffer (10 mM HEPES, 150 mM NaCl, 3 mM EDTA (pH 7.4) including 0.005% surfactant P-20).
The sensor chip was regenerated at the end of each run by injection of 0.1 M acetic acid, 0.5 M NaCl.
Data from parallel mock coupled flow cells (subjected to the coupling procedure in the presence of buffer only) served as blank sensorgrams for subtraction of changes in bulk refractive index.
The obtained sensorgrams were analysed by non-linear least squares fitting using BIAevaluation 2.0 software (Pharmacia Biosensor, Uppsala, Sweden) assuming single-site ssociation and dissociation models.

Data set [2] in a line: Peptide stability in mouse serum ex vivo, read out by ATF cell-binding inhibition. The note with it: 10% mouse serum, up to 24 hours, 37° C. Format: in vitro ADME. On the procedure:
Mouse blood was collected from anaesthetised mice (femal nu/nu-META/Bom (Bomholtgaard, Ry, Denmark)) by cardiac puncture. The blood samples were allowed to clot for 30 min at room temperature, followed by centrifugation at 1,000×g for 10 min at 20° C., and the sera were sterile filtered using 0.8 μm/0.2 μm filters (Acrodisc PF, Gelman Science, MI) and then stored at 4° C. until use. The peptide antagonists were added to fresh pooled mouse serum at the indicated concentrations (FIG. 5) and incubated at 37° C. for different periods, between 0 hours and 24 hours. Serum incubated samples were diluted 1:10 in binding buffer (0.1% bovine serum albumin and 5 mM Hepes in Eagles MEM supplemented with Glutamax-1, pH 7.4). Subsequently, cell binding experiments in the presence of ^125I-labelled human ATF were performed in duplicates as above, by preincubating MDA-MB-231 BAG cells at 37° C. 15 min with the 1:10 diluted serum incubated samples ± peptides. In parallel, peptides diluted in binding buffer alone were included as controls.
AE118 and AE78 (for comparison) were incubated at 37° C. in the presence of 10% mouse serum for different time intervals, up to 24 hours. The incubation mixtures were tested for their ability to inhibit binding of radio-labelled human uPA amino terminal fragment (ATF) to monolayer cultures of human MDA-MB-231 breast cancer cells, as described in Example 7.

The target of data set [3] is cell-surface uPAR on monolayer cultures of human MDA-MB-231 breast cancer cells (Homo sapiens, UniProt Q03405). The data set can be described thus: Cell binding experiments with 125I-labelled human ATF (uPA/uPAR Binding Assay). On the procedure: The peptides were tested for their ability to inhibit binding of radio-labelled amino terminal fragment (ATF) of human uPA to monolayer cultures of human MDA-MB-231 breast cancer cells.
MDA-MB-231 BAG cells were harvested by trypsin/EDTA treatment and added to 5% FCS supplemented medium in 24 well cluster plates at a cell density of 100,000 cells per well or as indicated otherwise. For background estimation, wells without cells were included in order to measure binding of ^125I-labelled ligand to the plastic. Next day the adherent monolayers were washed twice in binding-buffer (0.1% bovine serum albumin (BSA; Fraction V, Sigma) and 5 mM Hepes in Eagles MEM supplemented with Glutamax-1, pH 7.4). Before binding experiments, the cells were subjected to acid treatment to liberate receptor-bound endogenous uPA. Each culture well was incubated for 3 min at 23° C. with 200 μL of 0.05 M glycine-HCl, 0.1 M NaCl, pH 3.0, after which 200 μL of 0.5 M Hepes, 0.1 M NaCl pH 7.5 was added to neutralize the acid buffer. The wells were then emptied and washed once with binding buffer. Various competitors diluted in binding buffer were then added to the wells, followed by a pre-incubation at 37° C. for 15 min. Finally, ^125I-labelled ligand was added to each well at a final concentration of 1 nM. […] Aliquots from the wells were finally measured for radioactivity on a γ-counter.

Data set [4] deals with soluble recombinant variant of human uPAR (suPAR) (human) (UniProt Q03405). The data set can be described thus: SPR (Biacore), immobilised human suPAR.
For data set [5] the target is unchanged. The experiment in a line: SPR (Biacore), ligand over immobilised neuramimidase-treated human suPAR.
The target of data set [6] is T2, human uPAR on the surface of human MDA-MB-231 breast cancer cells (human, UniProt Q03405 23-305).
T2 construct: whole, on cells; also called cell-surface uPAR
The experiment in a line: competition with 1 nM ^125I-labelled human ATF for binding to MDA-MB-231 cell monolayers.
Protocol: Next day the adherent monolayers were washed twice in binding-buffer (0.1% bovine serum albumin (BSA; Fraction V, Sigma) and 5 mM Hepes in Eagles MEM supplemented with Glutamax-1, pH 7.4). Before binding experiments, the cells were subjected to acid treatment to liberate receptor-bound endogenous uPA. Each culture well was incubated for 3 min at 23° C. with 200 µL of 0.05 M glycine-HCl, 0.1 M NaCl, pH 3.0, after which 200 µL of 0.5 M Hepes, 0.1 M NaCl pH 7.5 was added to neutralize the acid buffer. The wells were then emptied and washed once with binding buffer. Various competitors diluted in binding buffer were then added to the wells, followed by a pre-incubation at 37° C. for 15 min. […] Cells were incubated at 4° C. for 60 min, and then washed three times in binding-buffer. Subsequently, the cells were lysed by addition of 1 N NaOH to the wells. Aliquots from the wells were finally measured for radioactivity on a γ-counter.

“Also recorded” adds a separate entry of the source. Positions of bridges follow the written chain, without caps; N, C: chain ends. Non-standard residues stand in square brackets, D forms with d. Residues, ends and D or L forms follow the SMILES beside them. Chains are numbered I, II in the order given. No end group written: not given here. 1Nal = N[C@@H](Cc1cccc2ccccc12)C(=O)O; Cha = N[C@@H](CC1CCCCC1)C(=O)O; βAla = NCCC(=O)O

Sequence of soluble recombinant variant of human uPAR (suPAR) (human) (Q03405 23-299, change not shown): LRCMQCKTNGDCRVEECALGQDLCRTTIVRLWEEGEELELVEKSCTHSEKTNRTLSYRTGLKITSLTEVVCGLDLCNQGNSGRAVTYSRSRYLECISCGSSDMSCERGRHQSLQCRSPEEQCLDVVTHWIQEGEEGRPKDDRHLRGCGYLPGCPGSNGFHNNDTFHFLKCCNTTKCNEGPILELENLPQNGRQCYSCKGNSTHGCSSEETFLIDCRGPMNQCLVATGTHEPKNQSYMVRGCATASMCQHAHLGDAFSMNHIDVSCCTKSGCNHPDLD
Sequence of cell-surface uPAR on monolayer cultures of human MDA-MB-231 breast cancer cells (Q03405 23-305): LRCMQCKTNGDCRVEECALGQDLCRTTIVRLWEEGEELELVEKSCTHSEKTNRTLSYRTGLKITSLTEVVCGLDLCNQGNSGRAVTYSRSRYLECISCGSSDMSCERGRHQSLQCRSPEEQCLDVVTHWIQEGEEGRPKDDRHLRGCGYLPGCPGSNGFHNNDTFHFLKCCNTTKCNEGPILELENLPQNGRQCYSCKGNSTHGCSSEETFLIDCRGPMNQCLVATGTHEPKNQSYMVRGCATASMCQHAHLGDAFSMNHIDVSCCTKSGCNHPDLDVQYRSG
T2 sequence (Q03405 23-305): as above

Regarding `CC(C)C[C@H](NC(=O)[C@H](Cc1ccc(O)cc1)NC(=O)[C@@H](CCCNC(=N)N)NC(=O)[C@@H](CO)NC(=O)[C@H](Cc1ccccc1)NC(=O)[C@H](CC1CCCCC1)NC(=O)[C@@H](N)CC(=O)O)C(=O)N[C@@H](Cc1c[nH]c2ccccc12)C(=O)N[C@@H](CO)C(=O)NCC(=O)NCCCC[C@H](NC(=O)CNC(=O)[C@H](CO)NC(=O)[C@H](Cc1c[nH]c2ccccc12)NC(=O)[C@H](CC(C)C)NC(=O)[C@H](Cc1ccc(O)cc1)NC(=O)[C@@H](CCCNC(=N)N)NC(=O)[C@@H](CO)NC(=O)[C@H](Cc1ccccc1)NC(=O)[C@H](CC1CCCCC1)NC(=O)[C@@H](N)CC(=O)O)C(=O)O` [AE118, [DChaFsrYLWSG]2-K] (I: H-D[Cha]F[dS][dR]YLWSGK-OH / II: H-D[Cha]F[dS][dR]YLWSG; amide I:11-II:C; N-terminus and C-terminus assumed), the koff in data set [1] amounted to 4e-05 s⁻¹. The “ability to inhibit ATF binding after incubation in mouse serum (stability)” value in data set [2] is listed as “only a slight reduction; also recorded: more resistant than AE78”.

In the case of `CC(C)C[C@H](NC(=O)[C@H](Cc1ccc(O)cc1)NC(=O)[C@@H](CCCNC(=N)N)NC(=O)[C@@H](CO)NC(=O)[C@H](Cc1ccccc1)NC(=O)[C@H](CC1CCCCC1)NC(=O)[C@@H](N)CC(=O)O)C(=O)N[C@@H](Cc1c[nH]c2ccccc12)C(=O)N[C@@H](CO)C(=O)O` [AE105, DchaFsrYLWS], the koff in data set [1] is 0.00021 s⁻¹. Further, in data set [1] (compared with AE78), the “off-rate, fold slower than AE78” value came out at 48 fold. Also, the Relative kdiss in data set [1] (relative to the Growth Factor Domain of uPA (GFD = 1.0)) was determined as 1.5. Also, the IC50 in data set [3] (1 nM 125I-labelled human ATF, 0.1% BSA, read-out: IC50, inhibition of the binding of ATF to MDA-MB-231 cells) is 10 nM. Moreover, the “effectiveness in inhibiting radio-labelled human ATF binding to cell-surface uPAR” value in data set [3] (0.1% bovine serum albumin) is recorded as “more effective than the reference peptide AE78”.

B1: AE120 (peptide)
peptide 1: D[Cha]F[dS][dR]YLWSG[βAla]K
peptide 2: D[Cha]F[dS][dR]YLWSG
modifications: also: lactam at chain A 12 at chain B 10 to a chain's C-terminus
As for B1, the fold slower off-rate than the monomer AE105 in data set [4] was in the range of 5 to 7 times. Moreover, the Relative kdiss (relative to GFD) in data set [5] amounted to 0.21.

For AEPMPHSLNFSQYLWYT (also called Clone 20) [AE78], in data set [5], the Relative kdiss (relative to GFD) came out at 72.1. This molecule also registered an IC50 in data set [6] of 200 nM.

Take LNF[dS]QYLWS [AE111]: in data set [5], the Relative kdiss (relative to GFD) was found to be 7.5 and the koff was found to be 0.00105 s⁻¹.

Regarding D[Cha]F[dS][dR]YL[1Nal]S [AE114], in data set [5], the Relative kdiss (relative to GFD) was found to be 4.2 and the koff is 0.00059 s⁻¹.

For the molecule DFF[dS][dR]YLWS [AE112], in data set [5], the Relative kdiss (relative to GFD) is 12.9 and the koff was 0.00181 s⁻¹.

Regarding DXFSRYLWS (beta-cyclohexyl-L-alanine (Cha) at 2; D-Ser at 4; D-Arg at 5) [AE105], in data set [4], the fold slower off-rate than AE78 stood at 48 fold. For the same molecule, in data set [5], the Relative kdiss (relative to GFD) was determined as 1.5.

As for SL[Cha]F[dS]QYLWS [Lcha], in data set [5], the Relative kdiss (relative to GFD) was found to be 24.9 and the koff was 0.00349 s⁻¹.

As to DXFSRYLWS (beta-cyclohexyl-L-alanine (Cha) at 2; D-Ser at 4) [AE110], in data set [5], the Relative kdiss (relative to GFD) was 2 and the koff worked out at 0.00028 s⁻¹.

In the case of [dE][Cha]F[dS]YYLWS [AE115], in data set [5], the Relative kdiss (relative to GFD) turned out to be 11.9 and the koff was 0.00167 s⁻¹.

For the molecule DNF[dS][dR]YLWS [AE113], in data set [5], the Relative kdiss (relative to GFD) was greater than 100.

B2: AE118 (peptide)
peptide 1: D[Cha]F[dS][dR]YLWSGK
peptide 2: D[Cha]F[dS][dR]YLWSG
modifications: also: lactam at chain A 11 at chain B 10 to a chain's C-terminus
notes: also called [DChaFsrYLWSG]2-K; dimer AE118
Regarding B2, in data set [4], the fold slower off-rate than the monomer AE105 lay in the range of 5 to 7 times. Besides, in data set [5], the Relative kdiss (relative to GFD) stood at 0.28. For the same molecule, the IC50 in data set [6] amounted to 2 nM.

Values taken from US7026282B1, “Peptide antagonists of the human urokinase receptor and method for selecting them” (Cancerforskningsfonden AF 1989 (Fonden Til Fremme AF …, priority 1998, dated 2006).
